Measured values as given in the supplement of paper PMC10724198.
± gives the standard deviation of the averaged measurements.

System: Saccharomyces cerevisiae
Experiment: protein stability index of tFT-peptide fusion (C-terminal peptide) (PSI (0-1 scale)); higher = more stable (slower turnover)
Details: genetic background: wild type; temperature: 30 C
Method: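 Multiplexed protein stability (MPS) profiling in S. cerevisiae. Random 12-aa peptides (tFT-X12 library) are fused to the C-terminus of a sfGFP-mCherry tandem fluorescent timer, after mCherry and a GGGS linker. Cells are FACS-sorted into 8 mCherry/sfGFP bins and deep-sequenced. The protein stability index (PSI) is the read-weighted bin average, scaled from 0 (unstable) to 1 (stable). Only peptides with >10 reads are reported; cells were grown at 30 °C in SC-His with glucose.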
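Note: PSI is a weighted mean of sequencing reads over stability bins, variants kept only with over 10 reads, mCherry proximal and sfGFP distal, peptide attached via GGGS linker.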

Sequence	protein stability index
KRRGECEGGRRG	0.672 ± 0.044
NMCHVYTIIPSK	0.632 ± 0.024
TPDVLGPLFPGD	0.642 ± 0.099
PVFGRPFCSSSV	0.682 ± 0.061
WGWGVGWSGACL	0.7116 ± 0.0017
SVAGDEGDRLFR	0.686 ± 0.022
SPPCPPPLAPPP	0.758 ± 0.044
VYAETMTKELRG	0.69 ± 0.053
SPPHSPPWPLSL	0.691 ± 0.052
FPPPPPSRSRPV	0.708 ± 0.032
TPPPLSAPSYAG	0.697 ± 0.014
PLRLPPAPPPPP	0.617 ± 0.015
CLATAMARSQRE	0.683 ± 0.024
LPLVLSPSPPHP	0.711 ± 0.061
DMYSVTRDHVMI	0.655 ± 0.04
DIKKRQNIKDRK	0.686 ± 0.051
GVVGLCLLGLGR	0.701 ± 0.024
APHAPPPSFPAP	0.729 ± 0.0097
GGLWGSGGASGG	0.742 ± 0.073
PLRLPPAPPFPL	0.824 ± 0.075
AGFTATTPIRGV	0.715 ± 0.022

Sequence	protein stability index
PHSPSHTPVYPR	0.694 ± 0.011
MYHGKKTAGINV	0.7 ± 0.037
GRCSRGVEGVSG	0.675 ± 0.034
PPSLPPSPPLPP	0.694 ± 0.011
AGARGVAGWLPR	0.684 ± 0.041
VCVAVVGGGCRG	0.5726 ± 0.0032
WRSLVTVSTTAC	0.558 ± 0.042
LFPPPPSPLGHS	0.75227 ± 0.00052
ALPLPLLACSPL	0.6268 ± 0.0034
SKIKLYKIKKKK	0.7206 ± 0.0054
PDCLSLCFSLFP	0.664 ± 0.0071
KKRKKKEKKRKK	0.773 ± 0.17
GGSGAVRSVGEW	0.668 ± 0.036
YPPPRPDLPLLQ	0.679 ± 0.016
WVLSYVPEIGRL	0.741 ± 0.035
EGPLVRGSGVDV	0.637 ± 0.043
RRRAEGRRGVRA	0.6223 ± 0.0014
EGDACCGVDGKR	0.663 ± 0.13
RATERIVNIKGK	0.63277 ± 0.00036
DGGGGGGGVAGD	0.708 ± 0.051
WVLRRVGTVVYL	0.585 ± 0.018

Sequence	protein stability index
RLPQSRLRTPPP	0.705 ± 0.069
FFCLWFLSFLRF	0.572 ± 0.01
KKGRRERRITNE	0.695 ± 0.013
LPGPICSPPTGS	0.693 ± 0.011
VVFASNGSYVLG	0.672 ± 0.041
KKMKKASTAKEL	0.678 ± 0.025
SQGSCCTALDVA	0.675 ± 0.046
YFGRGKLGVVRT	0.705 ± 0.013
LSGSSNRVLFDL	0.728 ± 0.053
HSPPPLPLPTHP	0.719 ± 0.077
SPPPFPPSPSPP	0.715 ± 0.039
NKIKTSRKKNNQ	0.723 ± 0.017
EKKKNTQGIKKK	0.685 ± 0.011
YLVSRRSGCDLE	0.683 ± 0.051
PLLTPPPVLHHP	0.741 ± 0.035
SRSSRINLMRRW	0.674 ± 0.021
SVYCVLSRGNRL	0.687 ± 0.1
SGLPALPRPVWP	0.491 ± 0.076
DPPFPSGPPLPL	0.6742 ± 0.0061
GEGALTGGAGGQ	0.647 ± 0.0074
RPPPPHPSPLPL	0.713 ± 0.052

Sequence	protein stability index
SLRSIAPLGSRC	0.832 ± 0.19
FCDFSPPARSFP	0.76 ± 0.072
EGTTRDGERCRT	0.696 ± 0.0056
VLGCWEAPFVRC	0.62 ± 0.1
ILEGGGVLAWFG	0.7253 ± 0.0017
RNAEVWDNLFEG	0.6969 ± 0.0061
AGGVESGGRSGV	0.679 ± 0.02
RLGIADHEYPCE	0.673 ± 0.011
KRSNKGAKKKGK	0.672 ± 0.041
KRTEHTHDRKIK	0.721 ± 0.034
YNSSSYCGGGCG	0.6844 ± 0.0053
YFLLLLLNSSTP	0.528 ± 0.042
GGGGGGGGVKGV	0.66 ± 0.02
GAGGVRCPWVFG	0.674 ± 0.0075
FRSFALFGNSFL	0.704 ± 0.0053
SFRFFVSGFVVL	0.531 ± 0.009
GGGGFLGVVGVG	0.58 ± 0.01
PPPSPPSPLSPP	0.675 ± 0.073
